Test results reported in the supplement of paper PMC6755084.

B1: minF1; a variant is named by its letters at N, in order (parent)
chain: GAGACCGCAACTGAAAAGTTGTTNNNNAANNNNGGNTNNATTTCTGCACGTAGAAGCAAAAGGC

Variants of: B1
Assay: fraction ligated after 30 min (ligated reads / total reads); higher = more ligase activity
Conditions: with F1*subA RNA substrate (template-directed ligation), 42 °C
Experimental: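 Chip-synthesised pool of minF1 ligase ribozyme variants (single and double substitutions, single to quadruple deletions, bulge and P2 designed variants) was transcribed with T7 and reacted as a pool with excess substrate F1*subA for 30 min at 42 C in 50 mM EPPS pH 8.5, 25 mM MgCl2. Ligated and unligated RNAs were separated by PAGE, barcoded by RT and deep sequenced; fraction ligated = ligated reads / total reads, relative activity = FL / FL of wild-type minF1 (0.76); sequencing FL correlated with PAGE (R2 = 0.98). Sequences are the DNA template of the ribozyme.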

Compared with GAGACCGCAACTGAAAAGTTGTTATCAGAAATGGTGGTTATTTCTGCACGTAGAAGCAAAAGGC, GAGACCGCAACTGAAAAGTTGTTATCAGAAGGTGGGTTGATTTCTGCACGTAGAAGCAAAAGGC is higher in fraction ligated: 0.00103 for the first, 0.0012 for the second.

Going from GAGACCGCAACTGAAAAGTTGTTATCAAAAGGATGGGTTATTTCTGCACGTAGAAGCAAAAGGC to GAGACCGCAACTGAAAAGTTGTTATCAGAAATGGAGGGTTTTTCTGCACGTAGAAGCAAAAGGC, the fraction ligated falls from 0.00324 to 0.00114.

Going from GAGACCGCAACTGAAAAGTTGTTATCAGAAATGGTGGTTGTTTCTGCACGTAGAAGCAAAAGGC to GAGACCGCAACTGAAAAGTTGTTATCAGAATGATGGGTTGTTTCTGCACGTAGAAGCAAAAGGC, the fraction ligated falls from 0.00187 to 0.000608.

Going from GAGACCGCAACTGAAAAGTTGTTATCAGAAATATGGGTTGTTTCTGCACGTAGAAGCAAAAGGC to GAGACCGCAACTGAAAAGTTGTTATCAGAATGATGGTTGATTTCTGCACGTAGAAGCAAAAGGC, the fraction ligated rises from 0.0013 to 0.00581.

Going from GAGACCGCAACTGAAAAGTTGTTATCAGAAATGGGGGTTATTTCTGCACGTAGAAGCAAAAGGC to GAGACCGCAACTGAAAAGTTGTTATCAGAAGAGGGTTGAATTTCTGCACGTAGAAGCAAAAGGC, the fraction ligated rises from 0.00127 to 0.00247.

Compared with GAGACCGCAACTGAAAAGTTGTTATCAAAAGATGGTTGAATTTCTGCACGTAGAAGCAAAAGGC, GAGACCGCAACTGAAAAGTTGTTATCAGAAATTGGGTTGATTTCTGCACGTAGAAGCAAAAGGC is higher in fraction ligated: 0.00249 for the first, 0.00512 for the second.

Going from GAGACCGCAACTGAAAAGTTGTTATCAAAATGATGGGTTATTTCTGCACGTAGAAGCAAAAGGC to GAGACCGCAACTGAAAAGTTGTTATCAGAATGAGGGTTGATTTCTGCACGTAGAAGCAAAAGGC, the fraction ligated rises from 0.00278 to 0.00439.

Compared with GAGACCGCAACTGAAAAGTTGTTATCAAAAGGATGGTTGATTTCTGCACGTAGAAGCAAAAGGC, GAGACCGCAACTGAAAAGTTGTTATCAGAAGGAGGGTTAATTTCTGCACGTAGAAGCAAAAGGC is lower in fraction ligated: 0.00633 for the first, 0.00255 for the second.

Going from GAGACCGCAACTGAAAAGTTGTTATCAAAAGGTGGTTGAATTTCTGCACGTAGAAGCAAAAGGC to GAGACCGCAACTGAAAAGTTGTTATCAAAATATGGGTTGATTTCTGCACGTAGAAGCAAAAGGC, the fraction ligated rises from 0.00224 to 0.00446.

First: GAGACCGCAACTGAAAAGTTGTTATCAAAATATGGGTTAATTTCTGCACGTAGAAGCAAAAGGC
Second: GAGACCGCAACTGAAAAGTTGTTATCAGAATATGGTTGAATTTCTGCACGTAGAAGCAAAAGGC
The fraction ligated of the first is lower: 0.00288 for the first, 0.00433 for the second.

Going from GAGACCGCAACTGAAAAGTTGTTATCAAAATGATGGTTGATTTCTGCACGTAGAAGCAAAAGGC to GAGACCGCAACTGAAAAGTTGTTATCAGAAGGTGGGTTAATTTCTGCACGTAGAAGCAAAAGGC, the fraction ligated falls from 0.00509 to 0.00466.

Going from GAGACCGCAACTGAAAAGTTGTTATCAGAAATGGAGGTTATTTCTGCACGTAGAAGCAAAAGGC to GAGACCGCAACTGAAAAGTTGTTATCAAAATATGGTTGAATTTCTGCACGTAGAAGCAAAAGGC, the fraction ligated rises from 0.00104 to 0.00211.

First: GAGACCGCAACTGAAAAGTTGTTATCAAAATGATGGGTTGTTTCTGCACGTAGAAGCAAAAGGC
Second: GAGACCGCAACTGAAAAGTTGTTATCAAAATGATGGTTAATTTCTGCACGTAGAAGCAAAAGGC
The fraction ligated of the first is lower: 0.00152 for the first, 0.0033 for the second.

First: GAGACCGCAACTGAAAAGTTGTTATCAGAAATGGATGGTTTTTCTGCACGTAGAAGCAAAAGGC
Second: GAGACCGCAACTGAAAAGTTGTTATCAGAAATGGGGGTTGTTTCTGCACGTAGAAGCAAAAGGC
The fraction ligated of the first is lower: 0.000969 for the first, 0.0011 for the second.

First: GAGACCGCAACTGAAAAGTTGTTATCAAAAGGAGGGTTGATTTCTGCACGTAGAAGCAAAAGGC
Second: GAGACCGCAACTGAAAAGTTGTTATCAAAAGGAGGGTTAATTTCTGCACGTAGAAGCAAAAGGC
The fraction ligated of the first is higher: 0.00548 for the first, 0.00502 for the second.

Compared with GAGACCGCAACTGAAAAGTTGTTATCAGAATGATGGTTAATTTCTGCACGTAGAAGCAAAAGGC, GAGACCGCAACTGAAAAGTTGTTATCAGAAATATGGGTTATTTCTGCACGTAGAAGCAAAAGGC is lower in fraction ligated: 0.00248 for the first, 0.00135 for the second.

Compared with GAGACCGCAACTGAAAAGTTGTTATCAGAAGGATGGTTAATTTCTGCACGTAGAAGCAAAAGGC, GAGACCGCAACTGAAAAGTTGTTATCAGAAGGAGGTTGAATTTCTGCACGTAGAAGCAAAAGGC is lower in fraction ligated: 0.00153 for the first, 0.000468 for the second.

Compared with GAGACCGCAACTGAAAAGTTGTTATCAGAAGGGGGTTGAATTTCTGCACGTAGAAGCAAAAGGC, GAGACCGCAACTGAAAAGTTGTTATCAGAAATGAGGTTGATTTCTGCACGTAGAAGCAAAAGGC is higher in fraction ligated: 0.00483 for the first, 0.00551 for the second.

First: GAGACCGCAACTGAAAAGTTGTTATCAGAAATGTGGTTGATTTCTGCACGTAGAAGCAAAAGGC
Second: GAGACCGCAACTGAAAAGTTGTTATCAGAAATGGGGTTAATTTCTGCACGTAGAAGCAAAAGGC
The fraction ligated of the first is higher: 0.0032 for the first, 0.0012 for the second.

Going from GAGACCGCAACTGAAAAGTTGTTATCAGAAATTGGGTTAATTTCTGCACGTAGAAGCAAAAGGC to GAGACCGCAACTGAAAAGTTGTTATCAAAATGGATGGGTTTTTCTGCACGTAGAAGCAAAAGGC, the fraction ligated rises from 0.00076 to 0.0016.

Going from GAGACCGCAACTGAAAAGTTGTTATCAGAAATGGGTTGAATTTCTGCACGTAGAAGCAAAAGGC to GAGACCGCAACTGAAAAGTTGTTATCAGAATGAGGGTTAATTTCTGCACGTAGAAGCAAAAGGC, the fraction ligated falls from 0.00482 to 0.00241.
